Assay results taken from patent publication US20110263454A1, “Methods of Identifying Functional Characteristics of Promoters, Transcription Modifying Proteins and Transcription Modulating Agents” (Salk Institute for Biological Studies, priority 2008, published 2011).

Tests used:
[1] = test system: MCP-1 promoter; test: NHR-promoter luciferase screen, MCP-1 promoter; type: cell-based; details: for Normalized Luc. act., normalized to control / Luc. act., normalized to lacZ: MCP-1 promoter reporter; for Normalized Luc. act., normalized to control: HR without or with its ligand, relative to control; for Luc. act., normalized to lacZ: hormone receptor (HR) without or with its ligand; for mMCP-1 promoter reporter activity: transcription factor +/- ligand, control = 1.00
Method: (§1) The use, feasibility, and reproducibility of the functional NHR-promoter screen in a 48-well format have been tested validated. Briefly, there were co-expressed 50 ng of each NHR/NHR homodimer or NHR/RXR heterodimer with 100 ng promoter/luciferase construct and 50 ng of LacZ (as a control for transfection efficiency) in CV-1 cells using Fugene HD (Roche) as a transfection reagent (alternatively or additionally, a CMV-YFP construct can be used as a transfection control). Each of the nuclear hormone receptors that were used in these experiments was cloned into a pcDNA3.1 vector and comprised a C-terminally linked V5H6 tag. Twenty-four hours after transfection, appropriate ligands were added, where applicable, (see Table 5 for various ligands and concentrations and after 48 hrs, samples were assayed for luciferase and LacZ activity. To measure for luciferase activity 15 ul of sample was added to 30 ul of luciferase buffer (20 mM tricine, 1.07 mM MgCarbonate, 2.67 mM MgSulfate, 0.1 mM Naz-EDTA, 5 mM DTT, 5 mM ATP, 0.15 mg/ml CoA, 0.5 mM Luciferin), mixed briefly, and run in a Perkin Elmer Victor 5 luminometer. Thus, the functional NHR-promoter screen was used to observe the transcriptional activity of 29 promoters from various physiological pathways including inflammation, lipid and sugar metabolism, cholesterol transport, xenobiotic metabolism, and circadian rhythm.
(§2) The promoters that facilitate transcription of the indicated gene products that were tested using the protocols described herein are listed in the first row of the table. The nuclear hormone receptors and, where applicable, ligands that were assayed for their transcriptional effects on the promoters are listed in the first column of the table. The data represent the luciferase activity of each sample normalized to both the lacZ activity of that sample and to a control, e.g., no NHR or ligand, as customary in the art. As described previously, these normalizations allow the transcriptional activity of each reporter cell to be compared to other samples.
(§3) Tables 7-40 show the transcriptional effects of the hormone receptors, and, where applicable, ligands (orphan receptors are screened without ligand), on each individual promoter. […] The control data of each table are shown in their last rows.

[2] = test system: mADRP promoter; test: NHR-promoter luciferase screen, mADRP promoter; type: cell-based, mouse; details: for Luc. act., normalized to lacZ / Normalized Luc. act., normalized to control: ADRP promoter, HR/ligand component; for mADRP promoter reporter activity: transcription factor +/- ligand, control = 1.00
Method: as §1, §2, §3

[3] = test system: mUCP3 promoter; test: NHR-promoter luciferase screen, mUCP3 promoter; type: cell-based, mouse; details: for Normalized Luc. act., normalized to control / Luc. act., normalized to lacZ: mUCP3 promoter reporter; for Normalized Luc. act., normalized to control: HR without or with its ligand, relative to control; for Luc. act., normalized to lacZ: hormone receptor (HR) without or with its ligand; for mUCP3 promoter reporter activity: transcription factor +/- ligand, control = 1.00
Method: as §1, §2, §3

[4] = test system: Bmal1 promoter; test: NHR-promoter luciferase screen, Bmal1 promoter; type: cell-based, mouse; details: for Luc. act., normalized to lacZ / Normalized Luc. act., normalized to control: Bmal1 promoter, HR component without or with ligand; for mBmal1 promoter reporter activity: transcription factor +/- ligand, control = 1.00
Method: as §1, §2, §3

[5] = test system: hIFNg promoter; test: NHR-promoter luciferase screen, hIFNg promoter; type: cell-based, human; details: for Luc. act., normalized to lacZ / Normalized Luc. act., normalized to control: IFNg promoter, HR component without or with ligand; for hIFNg promoter reporter activity: transcription factor +/- ligand, control = 1.00
Method: as §1, §2, §3

[6] = test system: mDio2 promoter; test: NHR-promoter luciferase screen, mDio2 promoter; type: cell-based, mouse; details: for Luc. act., normalized to lacZ / Normalized Luc. act., normalized to control: Dio2, HR component without or with its ligand; for mDio2 promoter reporter activity: transcription factor +/- ligand, control = 1.00
Method: as §1, §2, §3

RXRa: Retinoic X Receptor α (NR2B1), cDNA driver
Normalized Luc. act., normalized to control [1]: 1.6
Luc. act., normalized to lacZ [1]: 170.8
mMCP-1 promoter reporter activity [1]: 1.60
Luc. act., normalized to lacZ [2]: 783.2
Normalized Luc. act., normalized to control [2]: 1.6
mADRP promoter reporter activity [2]: 1.57
Normalized Luc. act., normalized to control [3]: 1.3
Luc. act., normalized to lacZ [3]: 0.9
mUCP3 promoter reporter activity [3]: 1.27
Luc. act., normalized to lacZ [4]: 11.8
Normalized Luc. act., normalized to control [4]: 0.8
mBmal1 promoter reporter activity [4]: 0.75
Luc. act., normalized to lacZ [5]: 13.1
Normalized Luc. act., normalized to control [5]: 0.8
hIFNg promoter reporter activity [5]: 0.82
Luc. act., normalized to lacZ [6]: 18.6
Normalized Luc. act., normalized to control [6]: 1.2
mDio2 promoter reporter activity [6]: 1.18

VDR: Vitamin D Receptor (NR1I1), cDNA driver
Normalized Luc. act., normalized to control [1]: 2.0
Luc. act., normalized to lacZ [1]: 215.8
mMCP-1 promoter reporter activity [1]: 2.02
Luc. act., normalized to lacZ [2]: 766.6
Normalized Luc. act., normalized to control [2]: 1.5
mADRP promoter reporter activity [2]: 1.54
Normalized Luc. act., normalized to control [3]: 1.5
Luc. act., normalized to lacZ [3]: 1.0
mUCP3 promoter reporter activity [3]: 1.49
Luc. act., normalized to lacZ [4]: 22.0
Normalized Luc. act., normalized to control [4]: 1.4
mBmal1 promoter reporter activity [4]: 1.40
Luc. act., normalized to lacZ [5]: 16.06
Normalized Luc. act., normalized to control [5]: 1.0
hIFNg promoter reporter activity [5]: 1.01
Luc. act., normalized to lacZ [6]: 23.7
Normalized Luc. act., normalized to control [6]: 1.5
mDio2 promoter reporter activity [6]: 1.51

SF-1: Steroidogenic Factor 1 (NR5A1, SF1), cDNA driver
Normalized Luc. act., normalized to control [1]: 2.0
Luc. act., normalized to lacZ [1]: 217.9
mMCP-1 promoter reporter activity [1]: 2.04
Luc. act., normalized to lacZ [2]: 1864.1
Normalized Luc. act., normalized to control [2]: 3.7
mADRP promoter reporter activity [2]: 3.75
Normalized Luc. act., normalized to control [3]: 5.5
Luc. act., normalized to lacZ [3]: 3.7
mUCP3 promoter reporter activity [3]: 5.46
Luc. act., normalized to lacZ [4]: 11.4
Normalized Luc. act., normalized to control [4]: 0.7
mBmal1 promoter reporter activity [4]: 0.73
Luc. act., normalized to lacZ [5]: 46.3
Normalized Luc. act., normalized to control [5]: 2.9
hIFNg promoter reporter activity [5]: 2.91
Luc. act., normalized to lacZ [6]: 63.2
Normalized Luc. act., normalized to control [6]: 4.0
mDio2 promoter reporter activity [6]: 4.02

B1: LXRb: Liver X Receptor β (NR1H2), cDNA driver (protein, UniProt P55055 1-460, looked up)
Oxysterols receptor LXR-beta: MSSPTTSSLDTPLPGNGPPQPGAPSSSPTVKEEGPEPWPGGPDPDVPGTDEASSACSTDWVIPDPEEEPERKRKKGPAPKMLGHELCRVCGDKASGFHYNVLSCEGCKGFFRRSVVRGGARRYACRGGGTCQMDAFMRRKCQQCRLRKCKEAGMREQCVLSEEQIRKKKIRKQQQESQSQSQSPVGPQGSSSSASGPGASPGGSEAGSQGSGEGEGVQLTAAQELMIQQLVAAQLQCNKRSFSDQPKVTPWPLGADPQSRDARQQRFAHFTELAIISVQEIVDFAKQVPGFLQLGREDQIALLKASTIEIMLLETARRYNHETECITFLKDFTYSKDDFHRAGLQVEFINPIFEFSRAMRRLGLDDAEYALLIAINIFSADRPNVQEPGRVEALQQPYVEALLSYTRIKRPQDQLRFPRMLMKLVSLRTLSSVHSEQVFALRLQDKKLPPLLSEIWDVHE
Normalized Luc. act., normalized to control [1]: 1.9
Luc. act., normalized to lacZ [1]: 198.9
mMCP-1 promoter reporter activity [1]: 1.86
Luc. act., normalized to lacZ [2]: 1191.8
Normalized Luc. act., normalized to control [2]: 2.4
mADRP promoter reporter activity [2]: 2.40
Normalized Luc. act., normalized to control [3]: 1.7
Luc. act., normalized to lacZ [3]: 1.2
mUCP3 promoter reporter activity [3]: 1.73
Luc. act., normalized to lacZ [4]: 17.4
Normalized Luc. act., normalized to control [4]: 1.1
mBmal1 promoter reporter activity [4]: 1.11
Luc. act., normalized to lacZ [5]: 19.35
Normalized Luc. act., normalized to control [5]: 1.2
hIFNg promoter reporter activity [5]: 1.22
Luc. act., normalized to lacZ [6]: 18.1
Normalized Luc. act., normalized to control [6]: 1.2
mDio2 promoter reporter activity [6]: 1.15

B2: HNF4a: Hepatocyte Nuclear Factor α (NR2A1), cDNA driver (protein, UniProt P41235 1-474, looked up)
Hepatocyte nuclear factor …: MRLSKTLVDMDMADYSAALDPAYTTLEFENVQVLTMGNDTSPSEGTNLNAPNSLGVSALCAICGDRATGKHYGASSCDGCKGFFRRSVRKNHMYSCRFSRQCVVDKDKRNQCRYCRLKKCFRAGMKKEAVQNERDRISTRRSSYEDSSLPSINALLQAEVLSRQITSPVSGINGDIRAKKIASIADVCESMKEQLLVLVEWAKYIPAFCELPLDDQVALLRAHAGEHLLLGATKRSMVFKDVLLLGNDYIVPRHCPELAEMSRVSIRILDELVLPFQELQIDDNEYAYLKAIIFFDPDAKGLSDPGKIKRLRSQVQVSLEDYINDRQYDSRGRFGELLLLLPTLQSITWQMIEQIQFIKLFGMAKIDNLLQEMLLGGSPSDAPHAHHPLHPHLMQEHMGTNVIVANTMPTHLSNGQMCEWPRPRGQAATPETPQPSPPGGSGSEPYKLLPGAVATIVKPLSAIPQPTITKQEVI
Normalized Luc. act., normalized to control [1]: 0.7
Luc. act., normalized to lacZ [1]: 78.0
mMCP-1 promoter reporter activity [1]: 0.73
Luc. act., normalized to lacZ [2]: 729.1
Normalized Luc. act., normalized to control [2]: 1.5
mADRP promoter reporter activity [2]: 1.47
Normalized Luc. act., normalized to control [3]: 1.1
Luc. act., normalized to lacZ [3]: 0.7
mUCP3 promoter reporter activity [3]: 1.06
Luc. act., normalized to lacZ [4]: 10.1
Normalized Luc. act., normalized to control [4]: 0.6
mBmal1 promoter reporter activity [4]: 0.65
Luc. act., normalized to lacZ [5]: 8.7
Normalized Luc. act., normalized to control [5]: 0.5
hIFNg promoter reporter activity [5]: 0.55
Luc. act., normalized to lacZ [6]: 33.6
Normalized Luc. act., normalized to control [6]: 2.1
mDio2 promoter reporter activity [6]: 2.14

B3: RORa: RAR-related Orphan Receptor α (NR1F1), cDNA driver (protein, UniProt P35398 1-523, looked up)
Nuclear receptor ROR-alpha: MESAPAAPDPAASEPGSSGADAAAGSRETPLNQESARKSEPPAPVRRQSYSSTSRGISVTKKTHTSQIEIIPCKICGDKSSGIHYGVITCEGCKGFFRRSQQSNATYSCPRQKNCLIDRTSRNRCQHCRLQKCLAVGMSRDAVKFGRMSKKQRDSLYAEVQKHRMQQQQRDHQQQPGEAEPLTPTYNISANGLTELHDDLSNYIDGHTPEGSKADSAVSSFYLDIQPSPDQSGLDINGIKPEPICDYTPASGFFPYCSFTNGETSPTVSMAELEHLAQNISKSHLETCQYLREELQQITWQTFLQEEIENYQNKQREVMWQLCAIKITEAIQYVVEFAKRIDGFMELCQNDQIVLLKAGSLEVVFIRMCRAFDSQNNTVYFDGKYASPDVFKSLGCEDFISFVFEFGKSLCSMHLTEDEIALFSAFVLMSADRSWLQEKVKIEKLQQKIQLALQHVLQKNHREDGILTKLICKVSTLRALCGRHTEKLMAFKAIYPDIVRLHFPPLYKELFTSEFEPAMQIDG
Normalized Luc. act., normalized to control [1]: 1.4
Luc. act., normalized to lacZ [1]: 150.7
mMCP-1 promoter reporter activity [1]: 1.41
Luc. act., normalized to lacZ [2]: 976.2
Normalized Luc. act., normalized to control [2]: 2.0
mADRP promoter reporter activity [2]: 1.96
Normalized Luc. act., normalized to control [3]: 2.6
Luc. act., normalized to lacZ [3]: 1.7
mUCP3 promoter reporter activity [3]: 2.56
Luc. act., normalized to lacZ [4]: 115.6
Normalized Luc. act., normalized to control [4]: 7.4
regulation of the Bmal1 promoter ([4]; FIG. 2c, in words): specific activation
mBmal1 promoter reporter activity [4]: 7.40
Luc. act., normalized to lacZ [5]: 8.8
Normalized Luc. act., normalized to control [5]: 0.6
hIFNg promoter reporter activity [5]: 0.55
Luc. act., normalized to lacZ [6]: 47.2
Normalized Luc. act., normalized to control [6]: 3.0
mDio2 promoter reporter activity [6]: 3.01
